Reference: paper PMC9605988, “Juxtaposition of Bub1 and Cdc20 on phosphorylated Mad1 during catalytic mitotic checkpoint complex assembly” (Nature Communications, 2022)
Entries after “also recorded” stand apart in the source; their conditions may differ.

Legend:
pMad1CTD homodimer = experiment: AUC-SE (sedimentation equilibrium) of pMad1CTD and Cdc20N; format: binding, human; conditions: for calculated mass of major species (Cdc20N:pMad1CTD): 20 °C, expected 35.7 kDa
Experimental: Sedimentation equilibrium experiments were carried out in a buffer of 20 mM HEPES pH 7.5, 100 mM NaCl and 1 mM TCEP. Samples were loaded into 12 mm six-sector cells, placed in an An-50Ti rotor and centrifugated at 10,200, 12,200 and 21,000 rpm at 20 °C until equilibrium had been reached using an Optima XL-I analytical ultracentrifuge (Beckman). The data were analysed in SEDPHAT 15.2b[68]. The partial-specific volumes (v-bar) were calculated using Sednterp[69]. The density and viscosity of the buffer were determined with a DMA 4500 M density metre (Anton Parr) and an AMVn viscometer (Anton Paar). Data were plotted with the program GUSSI[70].

[1] = tested on: AF488-Bub1CD1:Mad1CTD complex (unphosphorylated); experiment: Fluorescence anisotropy: Cdc20N titrated into preformed AF488-Bub1CD1:Mad1CTD complex; format: binding, human
Experimental: (§1) All reactions were completed in a buffer of 25 mM HEPES pH 7.75, 1 mM TCEP, 100 mM NaCl, 0.05% (v/v) Tween-20. […] Measurements were performed with a PheraStar plate reader FSX plate reader (BMG Labtech) using an optic module for λex = 485 nm, λem = 520 nm. Reactions were carried out in a total volume of 40 μl at 25 °C in a black, flat-bottom, non-binding surface 384-well plate (Corning). All experiments were performed as technical triplicates and data were analysed in PRISM 9.3.1 (GraphPad Software).

pMad1CTD = experiment: 1H,15N HSQC / CON NMR titration with pMad1CTD; format: binding, human; conditions: pMad1CTD
Experimental: (§2) Uniformly-labelled proteins were expressed in M9 minimal media (6 g/L Na2HPO4, 3 g/L KH2PO4, 0.5 g/L NaCl) supplemented with 1.7 g/L yeast nitrogen base without NH4Cl and amino acids (Sigma Y1251). 1 g/L ^15NH4Cl and 4 g/L unlabelled glucose were supplemented for ^15N labelling. For ^13C/ ^15N double-labelled samples, unlabelled glucose was replaced with 3 g/L ^13C-glucose. Prior to all NMR experiments, proteins were dialysed into 20 mM HEPES, pH 7.0, 100 mM NaCl and 1 mM TCEP.
The following protein concentrations were used in NMR studies: ^1H,^15N HSQC of Mad1^CTD were collected with a 100 µM sample, whereas a 50 µM sample was used for titrations with Cdc20^N and Cdc20^α1. Cdc20^Box1 peptide was added at mM concentrations to minimise dilution during titration. […] Mad1^CTD was concentrated to 3 mM for titrations into Cdc20^N. ^1H,^15N HSQC of Mad2 were collected at 100 µM. All Mad2 NMR samples contain an R133A mutation to prevent Mad2 dimerisation. The C-Mad2 sample additionally contains an L13A mutation which favours the C-Mad2 state. Cdc20^MIM-bound C-Mad2 sample was prepared by adding a 1:2 excess of Cdc20^MIM peptide to an O-Mad2 sample with R133A mutation. To follow the O-to-C conversion of Mad2, the samples were prepared on ice and monitored using BEST ^1H,^15N-TROSY HSQC. The spectra were acquired with 16 scans and a recycle delay of 400 msec, giving an experimental time of 12 min per spectrum.
Mad1^CTD and Mad2 experiments were performed using an in-house 800 MHz Avance III spectrometer and Cdc20^N experiments were performed using an in-house 700 MHz Avance II + spectrometer, both equipped with triple resonance TCI CryoProbes. To retrieve signals that suffer from exchange broadening, we also utilised the Bruker 950 MHz Avance III spectrometer located at MRC Biomedical NMR Centre (Francis Crick Institute). Mad1^CTD and Mad2 spectra were collected at 298 K. Cdc20^N spectra were collected at 278 K to minimise exchange broadening for the largely disordered Cdc20^N.
(§3) For binding studies, the relative peak intensities were normalised to the C-terminal residue Ala718 of Mad1^CTD or Gly73 of Cdc20^N and expressed as PIbound/PIfree, with PIfree and PIbound being the peak heights of the free and bound forms, respectively. Weighted chemical shift perturbations were calculated using the equation[63]: Δδ = [(ΔδHNWHN)^2 + (ΔδNWN)^2)^2]^1/2 where ΔδHN and ΔδN are the chemical shift perturbations in ^1H and ^15N dimensions respectively. The weight factors were determined from the average variances of chemical shifts in the BMRB database, where WHN = 1 and WN = 0.16.

[2] = tested on: Mad1CTD R617E/K619D mutant; experiment: SEC-MALS, Cdc20N with Mad1CTD R617E/K619D; format: binding, human; conditions: 1:1.2 ratio Mad1CTD dimer to Cdc20N
Experimental: (§4) Size-exclusion chromatography coupled with multi-angle static light scattering (SEC-MALS), was performed using an Agilent 1200 series LC system with an online Dawn Helios ii system (Wyatt) equipped with a QELS + module (Wyatt) and an Optilab rEX differential refractive index detector (Wyatt). About 100 μl purified protein at ~3.0 mg/ml was auto-injected onto Superdex 75 or a Superdex 200 Increase 10/300 GL column (GE Healthcare) and run at 0.5 ml/min. The molecular masses were analysed with ASTRA 7.3.0.11 (Wyatt). Data were plotted using Prism 8.4.3 (GraphPad Software, Inc). Purified Cdc20^N and Cdc20^N mutants were incubated with Mad1^CTD wild-type or mutants at a 1:1.2 ratio of Mad1^CTD dimer to Cdc20^N.

[3] = tested on: AF488-Bub1CD1:pMad1CTD complex; experiment: Fluorescence anisotropy: Cdc20N titrated into preformed AF488-Bub1CD1:pMad1CTD complex; format: binding, human; conditions: preformed AF488-Bub1CD1:pMad1CTD
[4] = target: T1, Mad1CTD (unphosphorylated) (Homo sapiens, UniProt Q9Y6D9); experiment: 1H,15N HSQC / CON NMR titration with unphosphorylated Mad1CTD; format: binding; conditions: residues 616-660 of Mad1CTD in HSQC; N-terminal half of Cdc20N in CON
T1 construct: the C-terminal domain of Mad1 (residue 597–718); made in house
T1 sequence (Q9Y6D9 597-718): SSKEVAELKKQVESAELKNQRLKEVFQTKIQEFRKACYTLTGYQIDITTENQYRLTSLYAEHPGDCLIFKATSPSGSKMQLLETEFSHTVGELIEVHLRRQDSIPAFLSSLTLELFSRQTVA
Experimental: as §2
The following protein concentrations were used in NMR studies: ^1H,^15N HSQC of Mad1^CTD were collected with a 100 µM sample, whereas a 50 µM sample was used for titrations with Cdc20^N and Cdc20^α1. […] To follow the O-to-C conversion of Mad2, the samples were prepared on ice and monitored using BEST ^1H,^15N-TROSY HSQC. […]
as §3

[5] = target: T1, Mad1CTD (unphosphorylated); experiment: SEC-MALS, Cdc20N with unphosphorylated Mad1CTD; format: binding; conditions: 1:1.2 ratio Mad1CTD dimer to Cdc20N
Experimental: as §4

[6] = Aggregation or non-specific binding at high concentration in the fluorescence anisotropy assay; format: physicochemical; conditions: further titration of Cdc20N to saturation; total fluorescence intensity
Experimental: as §1

pMad1CTD (Mad1CTD pT716) = experiment: SEC-MALS, Cdc20N with pMad1CTD; format: binding, human
Experimental: as §4

B1: Cdc20^N: N-terminal truncation of human Cdc20 (residues 1–73) (protein)
chain: MAQFAFESDLHSLLQLDAPIPNAPPARWQRKAKEAAGPAPSPMRAANRSHSAGRTPGRTPGKSSSKVQTTPSK
modifications: left off: His6, N-terminal, cleaved | MBP, N-terminal, cleaved
pMad1CTD homodimer; 20 µM Mad1CTD + 40 µM Cdc20N
  calculated mass of major species (Cdc20N:pMad1CTD): 32.6 kDa
pMad1CTD homodimer; 20 µM Mad1CTD + 80 µM Cdc20N
  calculated mass of major species (Cdc20N:pMad1CTD): 35.9 kDa
pMad1CTD homodimer; even with four-fold molar excess of Cdc20N
  stoichiometry on pMad1CTD homodimer: only a single copy of Cdc20^N bound
[1]
  change in fluorescence anisotropy on Cdc20N titration (competition test): increased the fluorescence anisotropy
pMad1CTD
  NMR signal attenuation / line broadening: more pronounced and extensive; also recorded: More significant signal attenuation
[2]
  binding by SEC-MALS: did not bind
[3]
  change in fluorescence anisotropy on Cdc20N titration (competition test): increased the fluorescence anisotropy
[4]
  NMR signal attenuation / line broadening: Significant signal attenuation; also recorded: substantial signal attenuation
[5]
  binding by SEC-MALS: did not bind; also recorded: no binding
[6]
  aggregation or non-specific binding to the plate: large increases in the total fluorescence intensity indicating aggregation or non-specific binding to the plate
pMad1CTD (Mad1CTD pT716); 1:1.2 ratio Mad1CTD dimer to Cdc20N
  binding by SEC-MALS: formed a stable complex
pMad1CTD (Mad1CTD pT716); SEC-MALS, expected 36 kDa for pMad1CTD dimer with one Cdc20N
  observed mass of pMad1CTD:Cdc20N complex: 38 kDa
